The values that follow are results of earlier work, collected in paper PMC8469563.

For this data set, the target named is C1q (Homo sapiens) (UniProt P02745).
UniProt P02745, sequence (P02745 23-245, chain 1 of 3): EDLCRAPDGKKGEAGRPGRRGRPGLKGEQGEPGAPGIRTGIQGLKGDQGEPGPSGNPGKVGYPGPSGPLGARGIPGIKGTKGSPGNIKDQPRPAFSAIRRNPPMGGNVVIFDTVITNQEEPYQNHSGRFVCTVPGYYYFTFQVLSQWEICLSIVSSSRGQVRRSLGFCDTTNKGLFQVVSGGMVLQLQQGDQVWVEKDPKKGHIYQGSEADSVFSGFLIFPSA
UniProt P02745, sequence (P02746 28-253, chain 2 of 3, further chain): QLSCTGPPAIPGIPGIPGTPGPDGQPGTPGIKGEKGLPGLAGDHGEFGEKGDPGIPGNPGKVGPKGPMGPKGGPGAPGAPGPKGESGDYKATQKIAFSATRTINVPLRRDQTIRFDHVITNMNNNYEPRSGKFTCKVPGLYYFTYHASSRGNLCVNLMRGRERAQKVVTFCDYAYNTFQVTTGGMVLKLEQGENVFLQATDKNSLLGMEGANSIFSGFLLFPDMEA
UniProt P02745, sequence (P02747 29-245, chain 3 of 3, further chain): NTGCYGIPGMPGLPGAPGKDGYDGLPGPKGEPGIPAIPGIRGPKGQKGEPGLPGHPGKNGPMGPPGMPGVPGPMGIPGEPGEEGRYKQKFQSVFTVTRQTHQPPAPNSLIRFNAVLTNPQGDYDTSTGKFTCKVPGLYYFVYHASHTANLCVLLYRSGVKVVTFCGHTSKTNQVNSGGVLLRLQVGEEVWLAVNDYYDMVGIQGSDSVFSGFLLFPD

By Kd is commonly meant the free concentration of one partner at which half of the binding sites on the other are occupied at equilibrium, for simple one-to-one binding. Take HMGB1 (from UniProt P09429): the Kd is 200 nM.
